Source: patent US5279956A, “Activated protein C polypeptides and anti-peptide antibodies, diagnostic methods and systems for inhibiting activated protein C” (The Scripps Research Institute, priority 1991, dated 1994)

Key:
APC [1] = target: T1, APC (Homo sapiens, UniProt P04070); conditions: Heeb et al. 1990; cited from earlier work
T1 construct: begins at amino acid residue position 158 and ends at 419; The light chain is 155 amino acid residues in length; tissue Factor IX concentrate from Immuno AG, Vienna; thrombin from Enzyme Research Laboratories

APC [2] = target: T1, APC; assay: Inhibition of APC by recombinant mutant (Arg358)-α1-antitrypsin, time course; assay type: biochemical; conditions: 18 nM APC and 100 nM α1-AT
Description: Since the number of amino acid residues involved in protease-protease inhibitor complexes is likely to be higher than the number of residues of APC involved in the cleavage of a small chromogenic substrate such as S-2366, the effect of peptide-(390-404) and peptide-(317-331) on the time course of inhibition of APC by a larger pseudosubstrate, recombinant mutant (Arg^358)-α1 -antitrypsin (α1 -AT) was evaluated. […] Heeb et al., J. Biol. Chem. 265:2365-2369 (1990).
Kinetic studies of inhibition of APC were performed with the higher affinity mutant α1 -AT pseudo-substrate. […] The change in absorbance was measured over time as described in the amidolytic assay. […]
Since the number of amino acid residues involved in protease-protease inhibitor complexes is likely to be higher than the number of residues of APC involved in the cleavage of a small chromogenic substrate such as S-2366, the effect of anti-(390-404) antibody on the time course of inhibition of APC by a larger pseudo-substrate, such as recombinant mutant (Arg^358)-α1 -AT was evaluated. […] The change in absorbance was measured over time as described in the amidolytic assay. […]

T1 sequence (P04070 212-461): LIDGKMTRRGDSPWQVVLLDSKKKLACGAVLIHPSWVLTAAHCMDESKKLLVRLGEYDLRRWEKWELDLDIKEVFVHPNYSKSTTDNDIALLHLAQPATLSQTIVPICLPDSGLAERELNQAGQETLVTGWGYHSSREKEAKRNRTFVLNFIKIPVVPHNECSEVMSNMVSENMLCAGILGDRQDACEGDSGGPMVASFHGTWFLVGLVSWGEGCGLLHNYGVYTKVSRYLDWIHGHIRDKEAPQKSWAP
T1 sequence (P04070 43-197): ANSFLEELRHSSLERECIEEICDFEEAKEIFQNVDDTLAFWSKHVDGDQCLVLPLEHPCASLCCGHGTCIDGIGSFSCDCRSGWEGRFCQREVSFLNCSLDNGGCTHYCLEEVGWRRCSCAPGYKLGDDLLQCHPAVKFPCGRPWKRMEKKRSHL

Substance: recombinant (Arg^358)α1 -AT: recombinant mutant α1-antitrypsin with Met358 substituted by Arg, pseudosubstrate inhibitor of APC (Transgene)
- increase in the association rate for APC by substitution of Met358 by Arg (APC [1]): over 4400 fold
- calculated half-life for APC (APC [2]): 2 min
